Results taken from article PMC4406585, “Generating Recombinant Antibodies against Putative Biomarkers of Retinal Injury” (PLoS ONE, 2015).
*: point of attachment. Biotin = O=C1N[C@H]2[C@H](CS[C@H]2CCCCC(=O)*)N1

T1: GBB5 peptide (Guanine Nucleotide-Binding Protein Beta 5) (Oryctolagus cuniculus peptide, synthetic, SMILES …)
T1 construct: four amino acid linker, printed in words: Glycine-Serine-Glycine-Serine; also called wild-type peptide; Ctrl; source: synthetic peptide
T1 chain: Biotin-GSGSKLHDVELHQVAERV-NH2

B1: anti-GBB5-H9 scFv (scFv, V domains shown)
VH: EVQLVQSGGGLVQPGGSLRLSCAASGFTVSSNYMSWVRQAPGKGLEWVSSISSSSSYIYYADSVKGRFTISRDNAKNSLYLQMNSLRAEDTAVYYCARSYPFDYWGQGTLVTVSS
VL: NFMLTQPHSVSESPGKAVTISCTGSSGDVARNYVQWYQQRPGSAPIIVIYEDTQRPSGVPDRFSGSIDSSSNSASLTISGLTTEDEADYYCQSYDGHNVIFGGGTKLTVL
notes: VL of clone H9, from a phage library of human B-cell cDNA; 14 amino acid linker of the library vector between VL and VH; VH of clone H9, from a phage library of human B-cell cDNA; Order VL-linker-VH; also called anti-GBB5-scFv H9; source: E. coli TG-1 (pKP300ΔIIIΔAP, OmpA signal to the periplasm, low phosphate media), purified (IMAC); not shown: FLAG, N-terminal, kept
B2: anti-GBB5-H9 scFv-Fc (Fc fusion, human)
VH: B1 VH
VL: B1 VL
notes: VL as in m1 (clone H9); 14 amino acid linker of the library vector between VL and VH; VH as in m1 (clone H9); H9 scFv coding region subcloned upstream of the Fc through NcoI and NotI; order after the scFv: Fc, (His)6, tri-FLAG; Homodimer through disulfide bonds of the Fc; also called Fc format of the H9 clone; bivalent Fc format; source: HEK-293 Freestyle cells, transiently transfected …

What was measured:
[1] = target: T2, Guanine Nucleotide-Binding Protein Beta 5 (GBB5), chicken, endogenous (Gallus gallus, UniProt A0A8V0ZF95); assay: far-Western, overlay or dot blot; western blot: retinal lysates resolved by SDS-PAGE, on PVDF; probed with 1 μg/mL scFv in PBS for 2 h; anti-Flag-HRP M2, ECL; conditions: one partner purified
T2 construct: expected size 38.8 kDa printed; also called chicken homolog; source: endogenous, chicken retina or whole eye homogenate

[2] = target: T3, Guanine Nucleotide-Binding Protein Beta 5 (GBB5), mouse, endogenous (Mus musculus, UniProt P62881, strain); assay: as above; conditions: one partner purified
T3 construct: also called mouse GBB5; source: endogenous, mouse retinal homogenate

[3] = target: T4, Guanine Nucleotide-Binding Protein Beta 5 (GBB5), rabbit, endogenous (Oryctolagus cuniculus, UniProt Q6PNB6); assay: as above; conditions: one partner purified
T4 construct: expected size 38.7 kDa printed; also called rabbit GBB5; source: endogenous, rabbit retinal homogenate

GBB5 peptide (Guanine …) [4] = target: T1, GBB5 peptide (Guanine …); assay: photonic crystal biosensor (SRU Biosystems BIND); biotinylated peptide, 50 ng/well, on streptavidin-coated 96-well biosensor plate, blocked with 5% BSA; scFv in decreasing concentration in 7 wells in elution buffer; overnight end-point change in peak wavelength; dose response curve, EC50 used to estimate Kd; conditions: both partners purified
GBB5 peptide (Guanine …) [5] = target: T1, GBB5 peptide (Guanine …); assay: ELISA; peptides at 25 nM on NeutrAvidin-coated plate; scFv at 30 nM, scFv-Fc at 10 nM in PBST; anti-FLAG-HRP, ABTS, 405 nm; conditions: both partners purified

T4 sequence (Q6PNB6 whole entry): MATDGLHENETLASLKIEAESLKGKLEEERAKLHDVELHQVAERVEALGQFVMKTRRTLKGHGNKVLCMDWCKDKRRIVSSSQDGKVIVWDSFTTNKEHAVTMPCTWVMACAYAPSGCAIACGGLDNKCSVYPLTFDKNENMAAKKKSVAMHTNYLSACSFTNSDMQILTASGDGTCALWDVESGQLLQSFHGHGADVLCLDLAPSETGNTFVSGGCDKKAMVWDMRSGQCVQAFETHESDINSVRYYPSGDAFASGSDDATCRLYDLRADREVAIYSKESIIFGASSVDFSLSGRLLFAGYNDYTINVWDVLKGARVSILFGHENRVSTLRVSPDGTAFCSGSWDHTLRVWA
T3 sequence (P62881 whole entry, looked up, change not shown): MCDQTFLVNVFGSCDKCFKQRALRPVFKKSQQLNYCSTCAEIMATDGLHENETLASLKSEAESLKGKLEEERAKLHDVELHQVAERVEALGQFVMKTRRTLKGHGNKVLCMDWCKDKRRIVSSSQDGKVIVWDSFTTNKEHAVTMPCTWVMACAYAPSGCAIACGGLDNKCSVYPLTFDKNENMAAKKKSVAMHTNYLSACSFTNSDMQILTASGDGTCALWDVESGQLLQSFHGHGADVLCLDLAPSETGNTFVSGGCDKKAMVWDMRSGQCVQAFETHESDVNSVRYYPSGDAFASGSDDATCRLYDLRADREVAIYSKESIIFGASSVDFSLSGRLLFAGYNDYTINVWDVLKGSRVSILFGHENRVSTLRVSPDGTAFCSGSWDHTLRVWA

Binder	binding result [1]	binding result [2]	binding result [3]	EC50 (GBB5 peptide (Guanine …) [4])	fold ELISA signal against the soluble scFv (GBB5 peptide (Guanine …) [5])
B1	binds	binds	binds	~0.3 µM	
B2					~4.5 fold
